# In article PMC4643051:
# B1: unnamed (parent)
# chain 1: DSGCVVSWKNKELKCGSGIFITDNVHTWTEQYKFQPESPSKLASAIQKAHEEGICGIRSVTRLENLMWKQITPELNHILSENEVKLTIMTGDIKGIMQAGKRSLRPQPTELKYSWKTWGKAKMLSTESHNQTFLIDGPETAECPNTNRAWNSLEVEDYGFGVFTTNIWLKLKEKQDVFCDSKLMSAAIKDNRAVHADMGYWIESALNDTWKIEKASFIEVKNCHWPKSHTLWSNGVLESEMIIPKNLAGPVSQHNYRPGYHTQITGPWHLGKLEMDFDFCDGTTVVVTEDCGNRGPSLRTTTASGKLITEWCCRSCTLPPLRYRGEDGCWYGMEIRPLKEKEENLVNSLVTA
# chain 2: FHLTTRNGEPHMIVSRQEKGKSLLFKTEDGVNMCTLMAMDLGELCEDTITYKCPLLRQNEPEDIDCWCNSTSTWVTYGTCTTMGEHRRQKRSVALVPHVGMGLETRTETWMSSEGAWKHVQRIETWILRHPGFTMMAAILAYTIGTTHFQRALIFILLTAVTPSMT
# Variants of: B1
# Details: with partner chain of the complex shown;; read off a plot
row,Variant,ratio to parent
1,chain 1 T301A,1.7 fold of WT
2,chain 1 W115A,0.45 fold of WT
3,chain 1 T117A,1.5 fold of WT
4,chain 1 S114A,0.27 fold of WT
5,chain 1 D180A,1.5 fold of WT
